# Assay results published in article PMC11825280.
# Biological target: rVSV-EBOV/Mayinga GP (EBOV/H.sap-tc/COD/76/Yambuku-Mayinga), thermolysin-cleaved (Ebola virus (EBOV)) (UniProt Q05320)
# Assay: ELISA
# rVSV-EBOV/Mayinga GP (EBOV/H.sap-tc/COD/76/Yambuku-Mayinga), thermolysin-cleaved (Ebola virus (EBOV)), sequence (Q05320 33-676): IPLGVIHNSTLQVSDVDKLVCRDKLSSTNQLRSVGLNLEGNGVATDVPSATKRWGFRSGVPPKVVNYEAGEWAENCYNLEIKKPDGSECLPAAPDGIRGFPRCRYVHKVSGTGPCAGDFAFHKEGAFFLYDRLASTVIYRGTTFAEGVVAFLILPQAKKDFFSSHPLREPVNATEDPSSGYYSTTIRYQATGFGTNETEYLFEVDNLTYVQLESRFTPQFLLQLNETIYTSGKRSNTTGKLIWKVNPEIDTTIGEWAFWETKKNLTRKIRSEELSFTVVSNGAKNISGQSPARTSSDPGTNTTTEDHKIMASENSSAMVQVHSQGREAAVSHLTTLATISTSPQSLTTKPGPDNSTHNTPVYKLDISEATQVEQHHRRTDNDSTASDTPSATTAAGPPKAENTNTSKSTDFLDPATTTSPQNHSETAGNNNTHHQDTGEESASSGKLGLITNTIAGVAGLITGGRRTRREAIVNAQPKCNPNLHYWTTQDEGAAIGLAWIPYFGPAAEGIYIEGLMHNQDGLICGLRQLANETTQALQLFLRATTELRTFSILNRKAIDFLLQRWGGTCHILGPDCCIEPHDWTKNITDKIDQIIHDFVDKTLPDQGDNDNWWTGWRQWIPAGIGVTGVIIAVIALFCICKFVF
substance,measurement,value
soluble human NPC1 domain C (NPC1-C) (from UniProt O15118 23-1278) (domain or fragment),binding AUC,277
